For 2 molecules, cross-reactivity (against human Aβ), cross reactivity (against full-length Abeta 1-40) and cross reactivity (against mouse Abeta 1-40) results are on record in patent WO2007022015A1.

The target of assay [1] is rodent (mouse) Aβ1-42 (mouse (rodent)) (UniProt P12023). As to the kind of experiment: microplate assay on coated human and rodent Aβ1-40 and 1-42.
The target in assay [2] is rodent (mouse) Aβ1-40 (mouse (rodent)) (UniProt P12023). The assay is described as above.
The next assay deals with amyloid β (3-40) (human) (UniProt P05067). Description: sandwich ELISA, IAlO capture, HRP-14Fl detection, Abeta fragment 3-40. (In an ELISA, binding on a coated surface is turned into a signal by an enzyme label.)
The target in another assay is amyloid β (2-40) (human) (UniProt P05067). As to the kind of experiment: sandwich ELISA, IAlO capture, HRP-14Fl detection, Abeta fragment 2-40.
In the next assay the target is human Aβ1-40 (human) (UniProt P05067). As to the kind of experiment: sandwich ELISA, IAlO capture, HRP-14Fl detection, human and mouse Abeta 1-40.

On to “Aβ N-terminal-end specific monoclonal antibody 82E1 (printed 82El)”, for which the cross-reactivity (against human Aβ) in assay [1] and in assay [2] was 10% throughout.

B1: 14F1, mouse/human cross-reactive N terminus end-specific anti-Abeta antibody (antibody, V domains shown)
VH: DVHLQASGPDLVRPSQSLSLTCTVTDYSITSDYSWHWIRQFPGNKLEWMGYILFSGSSNFNPSLKSRISITRDTSKNQFFLHLNSVTTEDTATYYCARRAYDGNFSWFAYWGQGTLVTVSA
VL: QAVVTQESALTTSPGETVTLTCRSSAGAVTISNYANWVQEKPDHLFTGLIGGTNNRAPGVPARFSGSLIGDKAALTITGAQTEDEAIYFCALWYGNYWVFGGGTKLTVLG
With B1, the cross reactivity (against full-length Abeta 1-40) came to 0.08% with amyloid β (3-40) (human) and 0.78% in the assay with amyloid β (2-40) (human). The same molecule registered a cross reactivity (against mouse Abeta 1-40) in the assay with human Aβ1-40 (human) of 50%.
